From paper PMC4718643, “Characterization of a Mannose-6-Phosphate Isomerase from Bacillus amyloliquefaciens and Its Application in Fructose-6-Phosphate Production” (PLoS ONE, 2015)

Substrate: O=P(O)(O)OC[C@H]1OC(O)[C@@H](O)[C@@H](O)[C@@H]1O
Test: purified protein
Format: biochemical, Bacillus amyloliquefaciens
Settings: 0.5 mM Co2+ (general method), phosphate pH 7.5, 50 °C

B1: BsM6PI (Bacillus subtilis subsp. subtilis str. 168; K96Q) (protein)
chain: MTQSPIFLTPVFKEKIWGGTALRDRFGYSIPSESTGECWAISAHPKGPSTVANGPYKGKTLIELWEEHREVFGGVEGDRFPLLTKLLDVKEDTSIQVHPDDYYAGENEEGELGKTECWYIIDCKENAEIIYGHTARSKTELVTMINSGDWEGLLRRIKIKPGDFYYVPSGTLHALCKGALVLETQQNSDATYRVYDYDRLDSNGSPRELHFAKAVNAATVPHVDGYIDESTESRKGITIKTFVQGEYFSVYKWDINGEAEMAQDESFLICSVIEGSGLLKYEDKTCPLKKGDHFILPAQMPDFTIKGTCTLIVSHI
notes: full length, N-terminal His6 fusion (pET28a, BamHI/SalI), E. coli BL21(DE3), Ni-NTA; primers encode N-terminus MTQS and C-terminus IVSHI
With B1 the Km was 12 mM.
